Measurements as given in the RNAGym collection of RNA variant scans (doi:10.7554/elife.90254).

B1: LINE1-full (parent)
chain: UACGUAGGUGGUUUUCCCCUGAUAGUGCUAAGGGGGCCUGGAAGUUUGGACUGGGCAGAGCUCAACACAGCGUGGCAAAGUGGCUGUGGCUAGACUGCCUCUCUGGAUUCCUCGUCACUCAGCAGGGCAUCUCUGAGAGAAAUGCC

Variants of: B1
Assay: self-cleavage, relative activity (ratio to wild type); higher = more cleavage; in vitro, sequencing; the parent is a self-cleaving ribozyme

Which self-cleavage does the source give for UACGUAGGUGGUUUUCCCCUGAUAGUGCUAAGGGGGCCUGGAAGUUUGGACUGGGCAGAGCUCAACACAGCGUGGCAAAGUGGCUGUGGCUAGACUGCCUCUCUGGAUUCCUCGACUCUCAGCAGGGCAUCUCUGAGAGAAAUGCC [U115A A117U] here?
The self-cleavage was 1.82.

For UACGUAGGUGGUUUUCCCCUGAUAGUGCUAAAGGGGCCUGGAAGUUUGGACUGGGCAGAGCUCAACACAGCGUGGCAUAGUGGCUGUGGCUAGACUGCCUCUCUGGAUUCCUCGUCACUCAGCAGGGCAUCUCUGAGAGAAAUGCC [G32A A78U], which self-cleavage is on record?
Its self-cleavage is 1.32.

Which self-cleavage does the source give for UACGUAGGUGGUUUUCCCCUGAUAGUGCUAAGGGGGCCUGGAAGUUUGGACUGGGCAGAGCUCAACACAGCGUGGCAAAGUAGCUGUGGCUAGACAGCCUCUCUGGAUUCCUCGUCACUCAGCAGGGCAUCUCUGAGAGAAAUGCC [G82A U96A] here?
Its self-cleavage is 0.05.

For UACGUAGGUGGUUUUCCCCUGAUAGUGCUAAGGGGGCCUGGAAGUUUGGACUGGGCAGAGCUCAACACAGCGUGGCAAAGUGGCUGUGGCUAGACUGCCACUCUGGAUUCCUCGUCACUCAGCAGGGCAUCUCAGAGAGAAAUGCC [U100A U134A], which self-cleavage is on record?
The self-cleavage was 1.02.

With UACGUAGGUGGUUUUCCCCUGAUAAUGCUAAGGGGGCCUGGAAGUUUGGACUGGGCAGAGCUCAACACAGCGUGGCAAAGUGGCUGUGGCUAGACUGCCUCUCUGGAUUCCUCGACACUCAGCAGGGCAUCUCUGAGAGAAAUGCC [G25A U115A] as the variant, how does the self-cleavage read?
The self-cleavage was 1.05.

For CACGUAGGUGGUUUUCCCCUGAUAGUGCUAAGGGGGCCUGGAAGUUUGGACUGGGCAGAGCUCAACACAGCGUGGCAAAGUGGCUGUGGCUAGACUGCCUCUCUGGAUUCCUCGUCACUCAGCAGGGCAUCUCUGAGUGAAAUGCC [U1C A138U], which self-cleavage is on record?
The self-cleavage was 0.57.

Which self-cleavage does the source give for UACGUAGGAGGUUUUCCCCUGAUAGUGCUAAGGGGGCCUGGAAGUUUGGACUGGGCAGAGCUCAACACAGCGUGGCAAAGUGGCUGUGGCUAGACUGCCUCUCUGGAUUCCUCGUCACUCAGCAGGGCAUCUCUGGGAGAAAUGCC [U9A A136G] here?
Its self-cleavage is 1.29.

Which self-cleavage does the source give for UACGUAGGUGGUUUUCCCCUGAUAGUGCUAAGGGGGCCUGGAAGUUUGGACUGGGCAGGGAUCAACACAGCGUGGCAAAGUGGCUGUGGCUAGACUGCCUCUCUGGAUUCCUCGUCACUCAGCAGGGCAUCUCUGAGAGAAAUGCC [A59G C61A] here?
The self-cleavage was 0.03.

Which self-cleavage does the source give for UACGUAGGUGGUUUUCGCCUGAUAGUGCUAAGGGGGCCUGGAAGUUUGGACUGGGCAGAGCUCAACACAGCGUGGCAAAGUGGCUGUGGCUAGACUGCCUCUCUGGAUUCCUCGUCACUCAGCAGGGCAUCUCUGAGAGAAACGCC [C17G U143C] here?
The self-cleavage was 1.09.

For UACGUAGGUGGUUUUCCCCUGAUAGUGCUAAGGGGGCCUGGAAGUUUGGACUGGGCAGAGCUCAACACAGCGUGGCAAAGUGGCUGUGGCUAGACUGCCUCUCUGGAUUCCUCGUCACUCAGCAGGGCAUCUCUAAGUGAAAUGCC [G135A A138U], which self-cleavage is on record?
Its self-cleavage is 1.01.

With UACGUAGGUGGUUUUCCCCCGAUAGUGCUAAGGGGGCCUGGAAGCUUGGACUGGGCAGAGCUCAACACAGCGUGGCAAAGUGGCUGUGGCUAGACUGCCUCUCUGGAUUCCUCGUCACUCAGCAGGGCAUCUCUGAGAGAAAUGCC [U20C U45C] as the variant, how does the self-cleavage read?
The self-cleavage was 1.19.

Which self-cleavage does the source give for UACGUAGGUGGUUUUCCCCUCAUAGUGCUAAGGGGGCCUGGAAGUUUGGACUGGGCAGAGCUCAACACAGCGUGGCAAAGUGGCUGUGGCUAGACUGCCUCUCUGGAUUCCUCGUCACUCAGCAGGGCAUCCCUGAGAGAAAUGCC [G21C U132C] here?
Its self-cleavage is 1.27.

Which self-cleavage does the source give for UACGUAGGUGGUUUUCCCCUGAUAGUGCUAAGGGGGCCUGGAAGUAUGGACUGGGCAGAGCUCAACACAGCGUGGCAAAGUGGCUGUGGCUAGACUGCCUCUCUGGAUUCCUUGUCACUCAGCAGGGCAUCUCUGAGAGAAAUGCC [U46A C113U] here?
The self-cleavage was 1.16.

With UACGUAGGUGGUUUUCCCCUGAUAGUGCUAAGGGGGCCUGGAAGUUUGGACUGGGCAGAGCCCAACACAGUGUGGCAAAGUGGCUGUGGCUAGACUGCCUCUCUGGAUUCCUCGUCACUCAGCAGGGCAUCUCUGAGAGAAAUGCC [U62C C71U] as the variant, how does the self-cleavage read?
Its self-cleavage is 0.05.

With UACGUAGGUGGUUUUCUCCUGAUAGUGCUAAGGGGGCCUGGAAGUUUGGACUGGGCAGAGCUCAACACAGCGUGGCAAAGUGGCUGUGGCUAGACUGCCUCUCUGGAUUCCACGUCACUCAGCAGGGCAUCUCUGAGAGAAAUGCC [C17U U112A] as the variant, how does the self-cleavage read?
The self-cleavage was 0.9.

With UACGUAGGUGGGUUUCCCCUGAUAGUGCUAAGGGGGCCUGGAAGUUUGGACUGGGCAGAGCUCAACACAGCGUGGCAAAGUGGCUGUGGCUAGUCUGCCUCUCUGGAUUCCUCGUCACUCAGCAGGGCAUCUCUGAGAGAAAUGCC [U12G A94U] as the variant, how does the self-cleavage read?
The self-cleavage was 0.24.

Which self-cleavage does the source give for UACGUAGGUGGUUUUCCCCUGAUAGUGCUAAGGGGGCCUGGAAGUUCGGACUGGGCAGAGCUCAACACAGCGUGGCUAAGUGGCUGUGGCUAGACUGCCUCUCUGGAUUCCUCGUCACUCAGCAGGGCAUCUCUGAGAGAAAUGCC [U47C A77U] here?
The self-cleavage was 1.2.

For UACGUAGGUGGUUUUCCCCUGAUAGUGCUAAGGGGGCCUGGGUGUUUGGACUGGGCAGAGCUCAACACAGCGUGGCAAAGUGGCUGUGGCUAGACUGCCUCUCUGGAUUCCUCGUCACUCAGCAGGGCAUCUCUGAGAGAAAUGCC [A42G A43U], which self-cleavage is on record?
The self-cleavage was 1.56.

With UACGUAGGUGGUUUUCCCCUGAUAGUGCUAAGGGGGCCUGGAAGUUUGGACUGGGCAGAGCUAAACACAGCGUGGCAAAGUGGCUGUGGCUAGACUGCCUCUCUGGAUUCCUCGUCACUCAGCAGGGCAUCUCUGAGAGAAGUGCC [C63A A142G] as the variant, how does the self-cleavage read?
Its self-cleavage is 0.06.

Which self-cleavage does the source give for UACGUAGGUGGUUUUCCCCUGAUAGUGCUAAGGGGGCCUGGAAGUUUGGACAGGGCAGAGCACAACACAGCGUGGCAAAGUGGCUGUGGCUAGACUGCCUCUCUGGAUUCCUCGUCACUCAGCAGGGCAUCUCUGAGAGAAAUGCC [U52A U62A] here?
The self-cleavage was 0.05.
